In patent US20070099268A1, “Chimeric HCN channels” (priority 2005, published 2007):
“And” between values parts separate entries of the source, which are not always exact repeats. Equal values may be shown once.

How the values were obtained:
[1] = test system: cell-free patches from Xenopus oocytes; conditions: cited from earlier work
[2] = test system: mammalian expression systems; conditions: cited from earlier work
[3] = test system: adult ventricular myocytes; experiment: Voltage clamp (tail currents) of HCN2 expressed with AdHCN2 in adult ventricular myocytes; format: cell-based, rat
Method: Freshly isolated adult ventricular myocytes were prepared using the procedure described by Kuznetsov et al. (1995). This entailed a Langendorff perfusion of collagenase, followed by trimming away of the atria. The remaining tissue was minced and dissociated in additional collagenase solution. The isolated myocytes were suspended in a SFM then plated on 9×22 mm glass coverslips at 0.5-1×10^3 cells/mm^2. Two to three hours later, after the myocytes had adhered to the coverslips, the adenoviral infection procedure was begun (see below).
(§1) For increased expression efficiency, an adenoviral construct for mHCN2 was prepared. Gene delivery and transfer procedures followed previously published methods (Ng et al., 2000; He et al., 1998). A DNA fragment (between EcoRI and XbaI restriction sites) that included mHCN2 DNA downstream of the CMV promoter was obtained from plasmid pTR-mHCN2 (Santoro and Tibbs, 1999) and subcloned into the shuttle vector pDC516 (AdMax™; Microbix Biosystems, Toronto, Canada). The resulting pDC516-mHCN2 shuttle plasmid was co-transfected with a 35.5 kb El-deleted Ad genomic plasmid pBHGΔE1,3FLP (AdMax™) into El-complementing HEK293 cells.
AdHCN2 infection of rat ventricular myocytes was carried out 2-3 h after the isolated cells were plated onto coverslips. The culture medium was removed from the dishes (35-mm) and the inoculum of 0.2-0.3 ml/dish was added containing AdHCN2. The value of m.o.i. (multiplicity of infection—the ratio of viral units to cells) was 15-100. The inoculum was dispersed over the cells every 20 min by gently tilting the dishes so that the cells were evenly exposed to the viral particles. The dishes were kept at 37° C. in a CO2 incubator during the adsorption period of 2 h, then the inoculum was discarded and the dishes were washed and refilled with the appropriate culture medium. The dishes remained in the incubator for 24-48 h before electrophysiological experiments were conducted.
(§2) The whole-cell voltage clamp technique was employed to record native If or expressed IHCN2 or IHCN4. Action potentials were recorded in current clamp mode, again using a whole cell patch electrode. Experiments were carried out on cells superfused at 35° C. Extracellular solution contained (mM): NaCl, 140; NaOH, 2.3; MgCl2, 1; KCl, 5.4; CaCl2, 1.0; HEPES, 5; glucose, 10; pH 7.4. To record from myocytes expressing native currents (If), myocytes expressing HCN2 (IHCN2) or HCN4 (IHCN4), [K^+]0 was increased to 10 mM, and MnCl2 (2 mM) and BaCl2 (4 mM) added to the superfusate to eliminate calcium and inward rectifier (IK1) currents. In some experiments CsCl (4 mM) was used extracellularly to identify the pacemaker current as the Cs-sensitive current. […]
The activation relation of the native or expressed current can be determined from the steady-state I-V relation. […]

[4] = test system: neonatal ventricular myocytes; experiment: Voltage clamp (tail currents) of HCN2 expressed with AdHCN2 in neonatal ventricular myocytes; format: cell-based, rat
Method: as §1, with “cells. […]” for “cells.”
The whole-cell voltage clamp technique was employed to record native If or expressed IHCN2 or IHCN4. Action potentials were recorded in current clamp mode, again using a whole cell patch electrode. […]
(§3) The activation relation of the native or expressed current can be determined from the steady-state I-V relation. In this case, the reversal potential (Vf) was separately determined from the fully activated I-V relation (Accili et al., 1991) and used to generate the activation relation (y=I/(gmax*(V−Vf)), where gmax is the maximal conductance). […] Tail currents were measured at a negative voltage (−125 mV) to avoid contamination by transient outward and other currents at less negative voltages. […]

[5] = test system: neonatal rat ventricular myocytes; experiment: Voltage clamp of HCN2 or HCN4 plasmid (lipofectin) expressed in neonatal rat ventricular myocytes; format: cell-based
Source text: cDNAs encoding mouse HCN2 (mHCN2, GenBank AJ225122) or HCN4 (mHCN4, GenBank deposit in progress) were subcloned into the pCI mammalian expression vector (Promega, Madison, Wis.). The resulting plasmids (pCI-mHCN2 or pCI-mHCN4) were used for neonatal rat ventricular myocyte transfection, as indicated. A separate plasmid (pEGFP-CI; Clontech, Palo Alto, Calif.) expressing the gene of enhanced green fluorescent protein (EGFP) as a visual marker for successful DNA transfer was included in all transfection experiments. For transfection, 2 μg of pCI-mHCN and […] of pEGFP-CI were first incubated in 200 μl of SFM containing 10 μl of lipofectin (Gibco Life Technologies, Rockville, Md.) at room temperature for 45 min. The mixture was then added to a 35-mm petri dish containing […] suspended in 0.8 ml of SFM. After overnight incubation at 37° C. in a CO2 incubator, the medium containing the plasmids and lipofectin was discarded and the dish was refilled with 2 ml of fresh SFM.
as §2, with “current. The patch pipette solution included (mM): aspartic acid, 130; KOH, 146; NaCl, 10; CaCl2, 2; EGTA-KOH, 5; Mg-ATP, 2; HEPES-KOH, 10, pH 7.2. Where indicated, 10 μM cAMP was included in the pipette solution. A fast solution changing apparatus expedited the experimental protocols. The pipette resistance was typically 1-3 M. An Axopatch-200B amplifier and pClampS software (Axon Instruments) were used for acquisition and data analysis.” for “current.”
as §3

oocyte = conditions: cited from earlier work

B1: mHCN2: mouse HCN2 hyperpolarization-activated, cyclic nucleotide-gated channel, wild type (GenBank AJ225122) (protein)
chain: MDARGGGGRPGDSPGTTPAPGPPPPPPPPAPPQPQPPPAPPPNPTTPSHPESADEPGPRARLCSRDSACTPGAAKGGANGECGRGEPQCSPEGPARGPKVSFSCRGAASGPSAAEEAGSEEAGPAGEPRGSQASFLQRQFGALLQPGVNKFSLRMFGSQKAVEREQERVKSAGAWIIHPYSDFRFYWDFTMLLFMVGNLIIIPVGITFFKDETTAPWIVFNVVSDTFFLMDLVLNFRTGIVIEDNTEIILDPEKIKKKYLRTWFVVDFVSSIPVDYIFLIVEKGIDSEVYKTARALRIVRFTKILSLLRLLRLSRLIRYIHQWEEIFHMTYDLASAVMRICNLISMMLLLCHWDGCLQFLVPMLQDFPSDCWVSINNMVNHSWSELYSFALFKAMSHMLCIGYGRQAPESMTDIWLTMLSMIVGATCYAMFIGHATALIQSLDSSRRQYQEKYKQVEQYMSFHKLPADFRQKIHDYYEHRYQGKMFDEDSILGELNGPLREEIVNFNCRKLVASMPLFANADPNFVTAMLTKLKFEVFQPGDYIIREGTIGKKMYFIQHGVVSVLTKGNKEMKLSDGSYFGEICLLTRGRRTASVRADTYCRLYSLSVDNFNEVLEEYPMMRRAFETVAIDRLDRIGKKNSILLHKVQHDLSSGVFNNQENAIIQEIVKYDREMVQQAELGQRVGLFPPPPPPQVTSAIATLQQAVAMSFCPQVARPLVGPLALGSPRLVRRAPPGPLPPAASPGPPAASPPAAPSSPRAPRTSPYGVPGSPATRVGPALPARRLSRASRPLSASQPSLPHGVPAPSPAASARPASSSTPRLGPAPTARTAAPSPDRRDSASPGAASGLDPLDSARSRLSSNL
shift of activation curve to more positive potentials by cAMP ([1]; binding of cAMP to the CNBD): 17 mV | steady-state activation curve more hyperpolarized than that of HCN1 [1]: 20 mV | midpoint of activation reported in other mammalian expression studies [2]: −83 to −97 mV | shift of voltage dependence by saturating cAMP, adult ([3]; 10 μM cAMP in the pipette): 14 mV | slope factor (K), adult myocytes ([3]; AdHCN2): 6.5±0.5 mV | negative shift of voltage dependence of activation/deactivation kinetics in the adult ([3]; adult vs neonatal): 21 mV | shift in the activation relation (midpoints), adult vs neonatal myocytes ([3]; negative in the adult): 18 mV | shift of voltage dependence by saturating cAMP, neonate ([4]; 10 μM cAMP in the pipette): 17 mV | slope factor (K), neonatal myocytes ([4]; AdHCN2): 9.8±0.6 mV | slope factor (K) ([5]; lipofectin transfection): 7.7±0.7 mV | difference in midpoint of activation of HCN2 relative to HCN4 ([5]; neonatal myocytes): 8.5 mV and 9 mV | midpoint of activation (oocyte): −78 mV
